Test results reported in IntAct's records for PubMed 12732850.

B1: Humanin (Homo sapiens), Q8IVG9 (parent)
chain: MAPRGFSCLLLLTSEIDLPVKRRA

Variants of: B1
Conditions: with bax_human BAX

| effect of a mutation on the interaction | Variant |
| --- | --- |
| disrupting interaction strength | C8P |
